Data: patent US20190270997

Key:
[1] = target: HA-tagged KMT2D (full length, wild type) (UniProt O14686)
HA-tagged KMT2D S1331A = HA-tagged KMT2D S1331A (UniProt O14686)
[2] = target: V5-tagged KMT2D fragment (1222-1819) (UniProt O14686)

recombinant His-AKT (MRC-PPU Reagents DU1850), sequence (P31749 whole entry): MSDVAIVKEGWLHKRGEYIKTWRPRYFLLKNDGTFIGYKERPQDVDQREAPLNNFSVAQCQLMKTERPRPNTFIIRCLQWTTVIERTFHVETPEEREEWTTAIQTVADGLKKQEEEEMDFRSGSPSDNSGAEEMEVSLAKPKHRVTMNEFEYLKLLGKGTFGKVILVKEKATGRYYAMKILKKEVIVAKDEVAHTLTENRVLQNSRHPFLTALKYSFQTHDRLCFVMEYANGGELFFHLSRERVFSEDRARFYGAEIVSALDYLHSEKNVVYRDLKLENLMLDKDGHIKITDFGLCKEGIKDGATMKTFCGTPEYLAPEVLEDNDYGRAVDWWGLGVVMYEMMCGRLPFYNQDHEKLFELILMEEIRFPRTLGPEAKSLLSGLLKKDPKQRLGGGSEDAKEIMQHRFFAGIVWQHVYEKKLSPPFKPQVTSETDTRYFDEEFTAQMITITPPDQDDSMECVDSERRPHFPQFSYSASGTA

recombinant His-AKT (MRC-PPU Reagents DU1850)
in vitro kinase assay; phosphorylation detected by phospho-RXRXX(S/T) and phospho-KMT2D (S1331) antibodies [1]: The kinase assay confirmed the ability of AKT to directly phosphorylate S1331
in vitro kinase assay; phosphorylation detected by phospho-RXRXX(S/T) and phospho-KMT2D (S1331) antibodies (HA-tagged KMT2D S1331A): Mutation of serine to alanine (S1331A) completely abrogated the ability of AKT to phosphorylate KMT2D in vitro
in vitro kinase assay with the KMT2D (1222-1819) fragment as substrate (FIG. 11C) [2]: The kinase assay confirmed the ability of AKT to directly phosphorylate S1331
